US20170143843A1 (Genentech, published 2017)

Key:
human factor D [1] = target: T1, human factor D (human, UniProt P00746 26-253); experiment: cell-based or functional assay
human factor D [2] = target: T1, human factor D; experiment: cell-based or functional assay; remark: listed apart in the source
human factor D [3] = target: T1, human factor D; experiment: SPR Biacore T200, Fab captured by anti-huFab, human fD injected, 25 C
Procedure: Antibody Fab fragments were immobilized on a Series S CM5 sensor chip using the anti-huFab capture kit (GE healthcare Cat. #28-9583-25) following a protocol described by the manufacturer. Kinetics of binding were calculated from sensorgrams recorded for injection of 60 μL aliquots of solutions of human factor D varied in concentration from 0.39 nM to 25 nM in 2-fold increments. The flow rate was 30 μL/minute, the running buffer was HBS-P+, the temperature of analysis was 25° C., real-time reference cell subtraction was employed, and dissociation following factor D injection was followed for 10 minutes. After subtraction of the sensorgram observed for injection of running buffer, data were analyzed according to a 1:1 model using BiaEval software v4.1 (GE Healthcare) to extract the kinetics and affinity constants.

human factor D [4] = target: T1, human factor D; experiment: cell-based or functional assay; remark: listed apart in the source

T1 sequence (P00746 26-253 limits assumed): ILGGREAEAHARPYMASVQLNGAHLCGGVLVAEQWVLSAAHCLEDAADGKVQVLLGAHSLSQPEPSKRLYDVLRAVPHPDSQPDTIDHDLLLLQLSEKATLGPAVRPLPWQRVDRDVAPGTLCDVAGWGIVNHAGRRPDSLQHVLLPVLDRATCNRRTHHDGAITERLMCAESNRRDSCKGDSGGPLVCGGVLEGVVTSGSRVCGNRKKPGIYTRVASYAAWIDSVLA

B1: AFD.v14.C+TP octamer (Cys-modified AFD.v14-8ARM (TP)-PEG-MAL conjugate) (other)
light: DIQVTQSPSSLSASVGDRVTITCITSTSIESDMNWYQQKPGKVPKLLISGGNTLRPGVPSRFSGSGSGTDFTLTISSLQPEDVATYYCLQSDSLPYTFGQGTKVEIKRTVAAPSVFIFPPSDEQLKSGTASVVCLLNNFYPREAKVQWKVDNALQSGNSQESVTEQDSKDSTYSLSSTLTLSKADYEKHKVYACEVTHQGLSSPVTKSFNRGEC
heavy: EVQLVQSGPELKKPGASVKVSCKASGYTFTNYGMNWVRQAPGQGLEWMGWINTYTGETTYAEDFKGRFVFSLDTSVSTAYLQISSLKAEDTAVYYCEREGGVSNWGQGTLVTVSSASTKGPSVFPLAPSSKSTSGGTAALGCLVKDYFPEPVTVSWNSGALTSGVHTFPAVLQSSGLYSLSSVVTVPSSSLGTQTYICNVNHKPSNTKVDKKVEPKSCDKTHTC
modifications: C-terminal Cys linked through maleimide to one arm of a 40,000 MW eight-armed PEG with tripentaerythritol (TP) core (8ARM (TP)-PEG-MAL, JenKem)
Human factor D [1]
  Average IC50 fB Activation (pM), TR-FRET, 125 pM fD; AFD.v14 TP octamer (CEX pool): 77 pM
  Average IC50 fB Activation (pM), TR-FRET, 125 pM fD; AFD.v14 TP octamer (S200 pool): 104 pM

B2: AFD.v14 tetramer (AFD.v14.C conjugated to Sunbright PTE-400MA four-armed PEG) (other)
light: DIQVTQSPSSLSASVGDRVTITCITSTSIESDMNWYQQKPGKVPKLLISGGNTLRPGVPSRFSGSGSGTDFTLTISSLQPEDVATYYCLQSDSLPYTFGQGTKVEIKRTVAAPSVFIFPPSDEQLKSGTASVVCLLNNFYPREAKVQWKVDNALQSGNSQESVTEQDSKDSTYSLSSTLTLSKADYEKHKVYACEVTHQGLSSPVTKSFNRGEC
heavy: EVQLVQSGPELKKPGASVKVSCKASGYTFTNYGMNWVRQAPGQGLEWMGWINTYTGETTYAEDFKGRFVFSLDTSVSTAYLQISSLKAEDTAVYYCEREGGVSNWGQGTLVTVSSASTKGPSVFPLAPSSKSTSGGTAALGCLVKDYFPEPVTVSWNSGALTSGVHTFPAVLQSSGLYSLSSVVTVPSSSLGTQTYICNVNHKPSNTKVDKKVEPKSCDKTHTC
modifications: C-terminal Cys linked through maleimide to one arm of a 40,000 MW four-armed PEG (Sunbright PTE-400MA)
Human factor D [2]
  Average IC50 fB Activation (pM), TR-FRET, 50 pM fD: 14.8 pM

B3: AFD.v8 tetramer (AFD.v8.C conjugated to Sunbright PTE-400MA four-armed PEG) (other)
light: DIQVTQSPSSLSASVGDRVTITCITSTSIESDMNWYQQKPGKVPKLLISGGNTLRPGVPSRFSGSGSGTDFTLTISSLQPEDVATYYCLQSDSLPYTFGQGTKVEIKRTVAAPSVFIFPPSDEQLKSGTASVVCLLNNFYPREAKVQWKVDNALQSGNSQESVTEQDSKDSTYSLSSTLTLSKADYEKHKVYACEVTHQGLSSPVTKSFNRGEC
heavy: EVQLVQSGPELKKPGASVKVSCKASGYTFTNYGMNWVRQAPGQGLEWMGWINTYTGETTYAEDFKGRFVFSLDTSVSTAYLQISSLKAEDTAVYYCEREGGVNNWGQGTLVTVSSASTKGPSVFPLAPSSKSTSGGTAALGCLVKDYFPEPVTVSWNSGALTSGVHTFPAVLQSSGLYSLSSVVTVPSSSLGTQTYICNVNHKPSNTKVDKKVEPKSCDKTHTC
modifications: C-terminal Cys linked through maleimide to one arm of a 40,000 MW four-armed PEG (Sunbright PTE-400MA)
Human factor D [2]
  Average IC50 fB Activation (pM), TR-FRET, 50 pM fD: 11 pM

B4: AFD.v1 (VL-D28S) (Fab, V domains shown)
VH: EVQLVQSGPELKKPGASVKVSCKASGYTFTNYGMNWVRQAPGQGLEWMGWINTYTGETTYADDFKGRFVFSLDTSVSTAYLQISSLKAEDTAVYYCEREGGVNNWGQGTLVTVSS
VL: DIQVTQSPSSLSASVGDRVTITCITSTSIDDDMNWYQQKPGKVPKLLISGGNTLRPGVPSRFSGSGSGTDFTLTISSLQPEDVATYYCLQSDSLPYTFGQGTKVEIKR
notes: Fab variant of aFD.WT
Human factor D [3]
  Kd: ≤ 0.01 nM

B5: AFD.v14.C (Cys-modified AFD.v14 variant, Fab-C) (Fab, V domains shown)
VH: EVQLVQSGPELKKPGASVKVSCKASGYTFTNYGMNWVRQAPGQGLEWMGWINTYTGETTYAEDFKGRFVFSLDTSVSTAYLQISSLKAEDTAVYYCEREGGVSNWGQGTLVTVSS
VL: DIQVTQSPSSLSASVGDRVTITCITSTSIESDMNWYQQKPGKVPKLLISGGNTLRPGVPSRFSGSGSGTDFTLTISSLQPEDVATYYCLQSDSLPYTFGQGTKVEIKR
Human factor D [1]
  Average IC50 fB Activation (pM), TR-FRET, 125 pM fD: 72 pM

B6: AFD.v9 (VL-D28S:D30E:D31S VH-D62E VL-N34S) (Fab, V domains shown)
VH: EVQLVQSGPELKKPGASVKVSCKASGYTFTNYGMNWVRQAPGQGLEWMGWINTYTGETTYAEDFKGRFVFSLDTSVSTAYLQISSLKAEDTAVYYCEREGGVNNWGQGTLVTVSS
VL: DIQVTQSPSSLSASVGDRVTITCITSTSIESDMSWYQQKPGKVPKLLISGGNTLRPGVPSRFSGSGSGTDFTLTISSLQPEDVATYYCLQSDSLPYTFGQGTKVEIKR
notes: Fab variant of aFD.WT; also called SIESD + VL-N34S
Human factor D [3]
  Kd: 0.03 nM

B7: AFD.v10 (SIESD.D92E; VL-D28S:D30E:D31S VH-D62E VL-D92E) (Fab, V domains shown)
VH: EVQLVQSGPELKKPGASVKVSCKASGYTFTNYGMNWVRQAPGQGLEWMGWINTYTGETTYAEDFKGRFVFSLDTSVSTAYLQISSLKAEDTAVYYCEREGGVNNWGQGTLVTVSS
VL: DIQVTQSPSSLSASVGDRVTITCITSTSIESDMNWYQQKPGKVPKLLISGGNTLRPGVPSRFSGSGSGTDFTLTISSLQPEDVATYYCLQSESLPYTFGQGTKVEIKR
notes: Fab variant of aFD.WT
Human factor D [3]
  Kd: 0.07 nM

B8: AFD.v7 (TM.D92E; VL-D30E:D31S VH-D62E VL-D92E) (Fab, V domains shown)
VH: EVQLVQSGPELKKPGASVKVSCKASGYTFTNYGMNWVRQAPGQGLEWMGWINTYTGETTYAEDFKGRFVFSLDTSVSTAYLQISSLKAEDTAVYYCEREGGVNNWGQGTLVTVSS
VL: DIQVTQSPSSLSASVGDRVTITCITSTDIESDMNWYQQKPGKVPKLLISGGNTLRPGVPSRFSGSGSGTDFTLTISSLQPEDVATYYCLQSESLPYTFGQGTKVEIKR
notes: Fab variant of aFD.WT; also called TM.D92E (AFD.v7)
Human factor D [4]
  IC50 (nM) AP Hemolysis (rabbit erythrocytes, C1q-depleted human serum): 3.8 nM
Human factor D [3]
  Kd: ≤ 0.01 nM
